This experiment concerns the target T1, human endothelial lipase (EL) (human, UniProt Q9Y5X9 21-500, limits assumed).
T1 construct: The assay used endogenous EL in human plasma and a bought recombinant EL standard (Origene Technologies); also called human EL
T1 sequence: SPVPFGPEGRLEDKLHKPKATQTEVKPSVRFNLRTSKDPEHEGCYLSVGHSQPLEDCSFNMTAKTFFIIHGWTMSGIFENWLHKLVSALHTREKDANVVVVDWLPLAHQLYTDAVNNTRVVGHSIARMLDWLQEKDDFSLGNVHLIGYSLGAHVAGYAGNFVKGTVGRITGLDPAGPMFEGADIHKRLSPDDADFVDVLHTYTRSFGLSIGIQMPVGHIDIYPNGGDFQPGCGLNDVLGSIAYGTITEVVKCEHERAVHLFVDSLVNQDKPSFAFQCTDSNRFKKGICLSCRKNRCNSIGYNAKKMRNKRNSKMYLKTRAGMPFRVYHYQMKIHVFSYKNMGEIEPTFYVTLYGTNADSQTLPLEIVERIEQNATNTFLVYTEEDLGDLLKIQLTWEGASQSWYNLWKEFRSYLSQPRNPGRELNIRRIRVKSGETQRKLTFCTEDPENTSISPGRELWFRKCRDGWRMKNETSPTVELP
As to the kind of experiment: MSD immunoassay of human plasma: plate coated with MEDI5884 captures EL, which is detected with a biotinylated EL detection antibody and streptavidin sulfo-TAG. Plasma came from subjects with stable coronary heart disease given three monthly subcutaneous doses of MEDI5884 or placebo. The loss of capturable EL after dosing is what the filing calls target engagement. As to the method:
In particular, the amount of hEL bound by MEDI5884 in human plasma was measured using the Meso Scale Diagnostics (MSD) based immunoassay platform. Briefly, wells on a 96-well plate were coated with MEDI5884 and incubated overnight at 4° C. The next day, wells were washed with PBS containing 0.05% Tween20 wash buffer and blocked with I-Block Buffer (Applied Biosystems) for one hour at room temperature. Plates were washed. Then recombinant EL protein standard (Origene Technologies) and human plasma samples were added to corresponding wells and incubated for one hour at room temperature. After washing, a biotinylated EL detection antibody (Origene Technologies) was added to corresponding wells and incubated for one hour at room temperature. Plates were washed, then a streptavidin, sulfo-TAG antibody (MSD) was added to corresponding wells and incubated for one hour at room temperature. After washing, wells were incubated with Read buffer (MSD). Plates were read using the MESO Sector S 600 plate reader, and data was analyzed using the MSD Discovery Workbench software analysis program.

B1: MEDI5884 (antibody, human IgG4 S228P, kappa, V domains shown)
VH: QVQLVQSGSELKKPGASVKVSCKASGYTFTNYALNWVRQAPGQGLEWMGWINTYSGVGTYAGEFKGRFVFSLDTSVSTAYLQISSLKAEDTAVYYCARRGFYGRRFFDVWGKGTTVTVSS
VL: DIQLTQSPSSLSASVGDRVTITCKASQSVDYDVDSYMHWYQQKPGKAPKLLIYAASNLASGVPSRFSGSGSGTDFTFTISSLQPEDIATYYCQQTIEDPPTFGGGTKVEIKR
notes: Humanized anti-EL antibody, human IgG4P heavy chain and kappa light chain; It was coated on the plate as the capture reagent in the target engagement immunoassay; also called S6F1-4P
In the case of B1, the binding result was “binds”.

The values are drawn from US20230045712A1 (AstraZeneca / MedImmune, published 2023).
